Test results: the supplement of paper PMC10724198
± gives the standard deviation of the averaged measurements.

system: Saccharomyces cerevisiae; test: protein stability index of tFT-peptide fusion (C-terminal peptide) (PSI (0-1 scale)); higher = more stable (slower turnover); conditions: genetic background: wild type; temperature: 30 C
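Further: PSI is a weighted mean of sequencing reads over stability bins, variants kept only with over 10 reads, mCherry proximal and sfGFP distal, peptide attached via GGGS linker.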

Sequence | protein stability index
TVIKMEKKKDGG | 0.6691 ± 0.0047
TVKSCGRTLFSW | 0.6874 ± 0.0051
TVLRPKERQEHN | 0.721 ± 0.038
TVPLPPPPFLDS | 0.772 ± 0.042
TVPNLTPALPPL | 0.525 ± 0.11
TVRWRRGTGGAR | 0.704 ± 0.019
TVTPAARTWHGR | 0.67782 ± 0.00032
TVTPPAPCPPAG | 0.709 ± 0.032
TWYYRYSCCQLP | 0.696 ± 0.014
TYKEHNKTRETG | 0.686 ± 0.076
TYLQYKQKMKKH | 0.686 ± 0.15
TYSILLRVNCFK | 0.601 ± 0.004
TYWAPPFPLSLP | 0.52 ± 0.019
VACFLCTPKWFE | 0.69 ± 0.057
VACIIIDFTRWY | 0.536 ± 0.019
VAESGRGAGGDF | 0.7314 ± 0.0029
VAFPRSSTLGPY | 0.696 ± 0.027
VAGAGAGREAAY | 0.616 ± 0.026
VAGLQGGSGEGG | 0.576 ± 0.06
VAGTLPFMEFTS | 0.722 ± 0.023
VAIGGGLGGDRC | 0.719 ± 0.032
VALPPSHLSAFL | 0.6887 ± 0.0039
VALSLTSIFFMS | 0.556 ± 0.041
VANGGVIVRGRC | 0.668 ± 0.012
VAPAHPPHHRNL | 0.6626 ± 0.0036
VAPPIPSKAGHL | 0.753 ± 0.2

Sequence | protein stability index
VAPPLAPSPPLP | 0.6678 ± 0.0013
VAPPSSFPPPRL | 0.726 ± 0.056
VASDGGYGYLRF | 0.797 ± 0.077
VASLGFVGFCRF | 0.713 ± 0.06
VAWAGRGPGRSG | 0.713 ± 0.024
VAWCYCSGDTGV | 0.7 ± 0.035
VAWYSLAEGCEG | 0.641 ± 0.043
VCALGWWASWVW | 0.5512 ± 0.0013
VCDGIIQGNGTI | 0.705 ± 0.021
VCDLLLTLSFCV | 0.587 ± 0.017
VCFCLGNVTMEF | 0.732 ± 0.017
VCGRWVYPGGCR | 0.61 ± 0.01
VCGWGFLLGVFV | 0.5107 ± 0.0022
VCGYLSIVIWLR | 0.423 ± 0.24
VCIGVGGGVLGL | 0.6746 ± 0.0036
VCNLSRRGLCHG | 0.584 ± 0.11
VCPRLISPLILL | 0.584 ± 0.027
VCRADADRFVGL | 0.71 ± 0.059
VCRCYILSFPQR | 0.688 ± 0.028
VCRGAIPIERFR | 0.715 ± 0.15
VCSEARRKSVAL | 0.673 ± 0.02
VCVAACVGAHFA | 0.656 ± 0.083
VDASQTRYSRGS | 0.73964 ± 0.00026
VDDIIGIRKRNT | 0.691 ± 0.07
VDFGTLISEDRM | 0.736 ± 0.036
VDFLLRDPPGPS | 0.7201 ± 0.0065

Sequence | protein stability index
VDGSYCGTLASY | 0.6568 ± 0.0033
VDHRFLWALSSF | 0.751 ± 0.043
VDRGGRVGERGR | 0.597 ± 0.031
VDSAPRPPPEPC | 0.649 ± 0.041
VDSSGSQPRGNR | 0.648 ± 0.039
VDTNIRRTATYS | 0.729 ± 0.066
VDTPPPHHSPLL | 0.733 ± 0.068
VEGCVKGGCGGG | 0.662 ± 0.052
VERSEGRLGVVG | 0.686 ± 0.08
VESGVLCPGVGA | 0.634 ± 0.02
VEVRRMCSGQLG | 0.7136 ± 0.00096
VEWLGWFGISNK | 0.76 ± 0.017
VFAGLHSLCFFF | 0.641 ± 0.023
VFATRALSQRLI | 0.526 ± 0.011
VFCGCGGCVSLG | 0.655 ± 0.014
VFDIQLLDGGGP | 0.685 ± 0.025
VFFPLFLNGSNV | 0.695 ± 0.018
VFFRGVVVLLRL | 0.472 ± 0.048
VFGCAGVGGDCG | 0.67 ± 0.028
VFGRQVRVNGGS | 0.707 ± 0.043
VFLGRWKFFFWG | 0.619 ± 0.023
VFQVFSVGTCSG | 0.6451 ± 0.0039
VFRFGVCDDWCV | 0.765 ± 0.018
VFRGGGAVGSVR | 0.683 ± 0.043
VFRSRTSSLFTP | 0.6794 ± 0.0058
VFVDGVSYGGLC | 0.6811 ± 0.0058

Sequence | protein stability index
VFVFRLYFCGCC | 0.495 ± 0.015
VFVRSNSGACKN | 0.682 ± 0.027
VGAGAGGVGWVL | 0.749 ± 0.056
VGCLGYNSAGIN | 0.6968 ± 0.0065
VGCPLSLDAPEG | 0.687 ± 0.029
VGDGGGEVMGEA | 0.677 ± 0.053
VGEAGTRASVPV | 0.665 ± 0.12
VGELCGVGGRGG | 0.68 ± 0.13
VGFCFDGVHFRA | 0.639 ± 0.016
VGFFLGVLLSLL | 0.521 ± 0.0085
VGFGLIVWSSGW | 0.529 ± 0.0077
VGGAGDWRWGVW | 0.805 ± 0.018
VGGAVDFSVFFC | 0.585 ± 0.018
VGGCRLTRSSVW | 0.688 ± 0.011
VGGDRVGPEPEC | 0.718 ± 0.063
VGGEGKVVRGQE | 0.6518 ± 0.00034
VGGGACVWSRRR | 0.698 ± 0.05
VGGGWGGGVVLV | 0.696 ± 0.0071
VGGLMVYTGDVA | 0.704 ± 0.015
VGGRVCQSEGVE | 0.685 ± 0.0058
VGGWGERGRGGS | 0.696 ± 0.015
VGHRGVQAGGVG | 0.618 ± 0.016
VGKTVKQLSLIS | 0.597 ± 0.039
VGLAVWAAKLGR | 0.739 ± 0.018
VGLEVGPLVGGE | 0.6921 ± 0.0029
VGLGLSVGKKEI | 0.651 ± 0.098

Sequence | protein stability index
VGLLWEYVRLDG | 0.7079 ± 0.0036
VGLTGFQHTEWG | 0.753 ± 0.027
VGMGRAPGPDPA | 0.646 ± 0.0093
VGPGRRGWEGAP | 0.663 ± 0.022
VGPPWSISLSII | 0.636 ± 0.013
VGQVVTCFMSDA | 0.678 ± 0.028
VGSCGGGKVVVE | 0.6555 ± 0.00076
VGSDICLGLCLL | 0.871 ± 0.02
VGSKGCDGCNRA | 0.655 ± 0.047
VGTAVVDRHGVR | 0.603 ± 0.045
VGTVREVYCQGG | 0.678 ± 0.014
VGVFRCLPGQVG | 0.677 ± 0.057
VGVGDGLIRRSS | 0.7338 ± 0.004
VGVLCWLFLGVG | 0.501 ± 0.008
VGVWDGCLLGLG | 0.695 ± 0.028
VGWAVNGSMVVG | 0.662 ± 0.021
VGWCPLVGGSGQ | 0.753 ± 0.039
VGYGEVSGGGRM | 0.732 ± 0.026
VHFSSSCDYLIV | 0.653 ± 0.081
VHGGKREGGGEG | 0.667 ± 0.039
VHRFPPAPFCTP | 0.734 ± 0.047
VHRPFDGFSRAG | 0.662 ± 0.011
VHSMSRTFARPV | 0.683 ± 0.051
VIASPALLLPLF | 0.642 ± 0.062
VIDFAELGTVAH | 0.7301 ± 0.005
VIDTGAGSILEI | 0.7 ± 0.042

Sequence | protein stability index
VIESRNEEGGRV | 0.727 ± 0.022
VIFCFCSRSCFL | 0.643 ± 0.037
VIGAGTGCVVVG | 0.72 ± 0.013
VIMAEVLCVSNL | 0.508 ± 0.0071
VIPREPSEPHTA | 0.639 ± 0.021
VIVKNINKNTQI | 0.717 ± 0.038
VKGKLGSGSYIH | 0.644 ± 0.022
VKQFLICKNGRS | 0.728 ± 0.12
VKSFRFPHPVWN | 0.682 ± 0.011
VKWAIWGGMEWR | 0.667 ± 0.07
VKWFRESRMVGA | 0.65 ± 0.027
VLADIGSAGIGR | 0.711 ± 0.014
VLCRSLAGCCFV | 0.709 ± 0.012
VLFEARFSLRQS | 0.6768 ± 0.0044
VLFPLPFPCVSF | 0.681 ± 0.06
VLFPPGFPPGLL | 0.817 ± 0.04
VLFPPLCLSFCF | 0.498 ± 0.044
VLGASFTATYFQ | 0.749 ± 0.077
VLGCSVIADSCR | 0.637 ± 0.053
VLGDSASFWSCP | 0.765 ± 0.15
VLGGGPSIRGLM | 0.655 ± 0.027
VLGVGSFCLGVV | 0.622 ± 0.018
VLGWRLLPTAGI | 0.703 ± 0.062
VLILDVSFPRCD | 0.766 ± 0.18
VLLLLYGMFRGR | 0.59 ± 0.0094
VLLPEPCALRFT | 0.551 ± 0.029

Sequence | protein stability index
VLLRHRPKYACR | 0.645 ± 0.022
VLLRRRSIWPLG | 0.72 ± 0.0063
VLLRVSEQVSRV | 0.676 ± 0.1
VLRFATIKRMYP | 0.661 ± 0.018
VLRPFTPPSSRF | 0.723 ± 0.047
VLSISINRGVRI | 0.664 ± 0.0039
VLSRVSMSLGSP | 0.767 ± 0.16
VLTGLLFRRPRS | 0.604 ± 0.0062
VLVEWQTCRTRK | 0.656 ± 0.097
VLVGRAGIVFLG | 0.573 ± 0.04
VLVVRERGAVDG | 0.697 ± 0.1
VLWVLDAFCFGG | 0.643 ± 0.0084
VMGGWGCGVLRG | 0.731 ± 0.021
VMNHYCRFPVST | 0.598 ± 0.023
VMRRYVFPSGFF | 0.677 ± 0.023
VMWVGGAAGPVV | 0.663 ± 0.037
VNELYDNETTYV | 0.734 ± 0.035
VPAPLPRTSPPS | 0.673 ± 0.053
VPAYLVAARQYY | 0.655 ± 0.012
VPFRLFSSYLSG | 0.641 ± 0.037
VPGYLLIDFWWV | 0.5707 ± 0.001
VPHLPATPPAPP | 0.646 ± 0.037
VPLTKHENNFNE | 0.709 ± 0.018
VPPASTSPGAFP | 0.6889 ± 0.003
VPPLVPLHPPPP | 0.709 ± 0.047
VPPPRYLPAFPA | 0.694 ± 0.0078

Sequence | protein stability index
VPPSCPRPPTAP | 0.676 ± 0.064
VPQREWGGVRLG | 0.675 ± 0.017
VPRMLSTPKAQP | 0.723 ± 0.01
VPSRRLPLPPAS | 0.695 ± 0.0086
VPVGSLLVGSVT | 0.528 ± 0.012
VQASESGLRAGV | 0.686 ± 0.0092
VQASFLPGGSVR | 0.7062 ± 0.0039
VQGFYPVSAEGG | 0.674 ± 0.022
VQVLLMFTWERE | 0.511 ± 0.016
VRCAVVTMDLTL | 0.691 ± 0.05
VRCCFGGRGAIA | 0.6461 ± 0.0016
VRDVIGWGEEEY | 0.708 ± 0.017
VREVTIGGGLGE | 0.707 ± 0.0087
VRGTGRQLNKSM | 0.662 ± 0.054
VRGVCLWGGVVG | 0.641 ± 0.099
VRLELIRSKLSR | 0.701 ± 0.022
VRLLGVGGGFTC | 0.701 ± 0.038
VRLRLGLLAGWS | 0.633 ± 0.012
VRLWLTLQQVDF | 0.686 ± 0.085
VRMKAAIGNGAE | 0.6686 ± 0.0037
